In patent US20190359992:

Legend:
Assay in all cases: cell_activity
[1] = system: GmUbi3_T03.1 Right TALEN (synthetic construct); details: pair with P5; soybean protoplasts, raw 4.98%; full site SEQ 27
[2] = system: GmUbi3_T01.1 Left TALEN (synthetic construct); details: pair with P2; soybean protoplasts, raw 0.72%; full site SEQ 25
[3] = system: GmUbi3_T02.1 Left TALEN (synthetic construct); details: pair with P4; soybean protoplasts, raw 1.70%; full site SEQ 26
[4] = system: GmUbi3_T03.1 Left TALEN (synthetic construct); details: pair with P6; soybean protoplasts, raw 4.98%; full site SEQ 27
[5] = system: GmUbi3_T01.1 Right TALEN (synthetic construct); details: pair with P1; soybean protoplasts, raw 0.72%; full site SEQ 25
[6] = system: GmUbi3_T02.1 Right TALEN (synthetic construct); details: pair with P3; soybean protoplasts, raw 1.70%; full site SEQ 26

Sequence: GCCTTGAGCTAGTTGT (double strand) [GmUbi3_T3 right half-site]
- activity (% normalized mutation frequency) [1]: 8.12

Sequence: TGTCCTCCGTCTCCGT (double strand) [GmUbi3_T1 left half-site]
- activity (% normalized mutation frequency) [2]: 0.91

Sequence: CTTCCATGCTTGTCAT (double strand) [GmUbi3_T2 left half-site]
- activity (% normalized mutation frequency) [3]: 2.76

Sequence: TCATCAACTGTGGAGT (double strand) [GmUbi3_T3 left half-site]
- activity (% normalized mutation frequency) [4]: 8.12

Sequence: CCAACATTACACAACT (double strand) [GmUbi3_T1 right half-site]
- activity (% normalized mutation frequency) [5]: 0.91

Sequence: CCTTCACACAACTCAT (double strand) [GmUbi3_T2 right half-site]
- activity (% normalized mutation frequency) [6]: 2.76
